These results are taken from patent CN111138528A (INST MILITARY MEDICINE ACADEMY MILITARY SCIENCES PLA, dated 2020).

The target in this experiment is GPdM (Ebola virus (EBOV), UniProt Q05320 33-632). Put plainly: ELISA, truncated GP coated, 5A8 titrated (method of Example 2).

B1: 单克隆抗体5A8 (antibody, V domains shown)
VH: EVQLLESGGGLVKPGGSLRLSCAASGFTFSDYYMNWIRQAPGKGLEWVSYISSSGKTIYYADSVKGRFTISRDNAKKSLYLQMNSLRAEDTAVYYCARDREIVISTTILLGSDHYAMDVWGQGTTVTVSS
VL: DIQMTQSPFTLSASVGDRVTITCRASQSINSYLNWYQQKPGKAPKLLIYSASSLQSGVPSRFSGSGSGTDFTLTISSLQPEDFAIYYCQQTYRTPYTFGQGTKVEIKT
With B1, the EC50 is 8.2 ng/mL.
